Laboratory results reported in US20160108118A1 (METABOLIC ENGINEERING LABORATORIES, published 2016).

Assays:
Human CXCL10-His [1] = target: T1, Human CXCL10-His (human, UniProt P02778 22-98); assay: ELISA, IgG titrated from 50 nM on coated CXCL10
T1 construct: also called hCXCL10; recombinant human CXCL10 protein; not shown: His tag (named CXCL10-His)
T1 sequence (looked up): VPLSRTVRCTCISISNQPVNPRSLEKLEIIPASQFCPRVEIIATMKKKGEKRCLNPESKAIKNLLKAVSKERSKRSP
Procedure: Specifically, ELISA was carried out by coating a recombinant human CXCL10 protein with a coating buffer at 100 ng per well in a 96-well immunoplate at 4° C. for 16 hours, and a reaction in each well was blocked with skim milk (4%) dissolved in PBS. 0.2 ml of PBS-Tween20 (0.05%) was added to wash each well, monoclonal antibodies were sequentially diluted from 50 nM by ½, added at 100 μl each to an antigen-coated plate, and allowed to be reacted at room temperature for 2 hours. 0.2 ml of PBS-Tween20 (0.05%) was added again to wash each well three times, and a secondary antibody, anti-human Fc-HRP, was diluted at 1:4000 and allowed to be reacted at room temperature for 50 minutes. The plate was washed with 0.2 ml of PBS-Tween20 (0.05%), and a substrate solution prepared by adding an OPD table to a PC buffer was added to the plate at 100 μl per well to allow color development for 5 minutes, followed by measuring an absorbance at 490 nm using a spectrophotometer. The ELISA result was analyzed using a Graphpad prism ver. 4 software (CA 92037: Graphpad Software Inc., USA).

Human CXCL10-His [2] = target: T1, Human CXCL10-His; assay: phage ELISA
Human CXCL10-His [3] = target: T1, Human CXCL10-His; assay: phage ELISA, CXCL10/a-myc
Procedure: Two types of antigens such as CXCL10 and α-myc were put into a 96-well immunoplate at 100 ng per well and coated with a coating buffer at 4° C. for 16 hours, and wells were blocked with skim milk (4%) dissolved in PBS. Each well was washed with 0.2 ml of PBS-Tween20 (0.05%), and the monoclonal scFv-phages obtained by the third panning (each 100 scFv-phage) were added at 100 μl per well, and allowed to be reacted at room temperature for 2 hours. Each well was washed again with 0.2 ml of PBS-Tween20 (0.05%) four times, and a secondary antibody, anti-M13-HRP, was diluted at 1/2000 and allowed to be reacted at room temperature for 1 hour. Each well was washed with 0.2 ml of PBS-Tween20 (0.05%) and allowed to develop a color to measure an absorbance at 490 nm.

[4] = target: T2, His (control coat of Table 2); assay: phage ELISA
T2 construct: Not explained in the text

[5] = target: T3, α-myc (anti-myc antibody coated as second antigen); assay: phage ELISA
T3 construct: Coated at 100 ng per well beside CXCL10 in the phage ELISA; in effect a control of scFv display; also called a-myc

B1: anti-CXCL10 antibody 9E (whole IgG) (antibody, V domains shown)
VH: QVQLVESGGGVVQPGRSLRLSCAASGFTFSSYGMHWVRQAPGKGLEWVAVISYDGNNKYYVDSVKGRFTISRDNSKNTLYLQMNSLRSEDTAVYYCARDSGSYLDWYFDLWGRGTLVTVSS
VL: QPPSVSVAPGKTARIACGGGNIGDKSVHWYQQKPGQAPVLVIFYDSDRPSGIPKRLSGSNSGNTATLTISRVEAGDEGDYYCQVWDSSSDRPVFGGGTKLTVLG
notes: Whole-form IgG
- Kd (Human CXCL10-His [1]): 6.1 pM

B2: anti-CXCL10 antibody 10E (whole IgG) (antibody, V domains shown)
VH: QVQLVQSGGGVVQPGRSLRLSCAASGFTFNSYGMHWVRQAPGKGPEWVAVISYDGNSKYYADSVKGRFTISRDNSKTTLYLQMNSLRSEDTAVYYCARDSGSYLDWYFDLWGRGTLVTVSS
VL: QPPSVSGAPGQRVTISCTGSRSNFGAGHDVHWYQQLPGTAPKLLIYGNNNRPSGVPDRFSGSKSGTSASLAITGLQAEDEADYYCQSYDSRLGVVFGGGTKLTVLG
notes: also called E10
- Kd (Human CXCL10-His [1]): 7 pM

B3: scFv-phage clone 9E (scFv)
chain: QVQLVESGGGVVQPGRSLRLSCAASGFTFSSYGMHWVRQAPGKGLEWVAVISYDGNNKYYVDSVKGRFTISRDNSKNTLYLQMNSLRSEDTAVYYCARDSGSYLDWYFDLWGRGTLVTVSSQPPSVSVAPGKTARIACGGGNIGDKSVHWYQQKPGQAPVLVIFYDSDRPSGIPKRLSGSNSGNTATLTISRVEAGDEGDYYCQVWDSSSDRPVFGGGTKLTVLG
- OD490 (Human CXCL10-His [2]): 2.96
- Ratio (Human CXCL10-His [3]): 1.48

B4: scFv-phage clone 12D (scFv)
chain: QVQLVQSGGGVVQPGRSLRLSCVASAFTFSRYGMHWVRQAPGKGLEWVALISYDGSSEYYADSVKGRFNISRDNSKNTVYLQMNSLRAEDTAVYYCVKDGLAAKLGHWGQGTLVTVSSQAPSLSVSPGQTANIICSGDNLRTKYVSWYQQKPGQSPLLVIYQDTRRPSGIPARFSGSNSGNTATLTISGTQTERESTYYCMTWDVDTTSMIFGGGTKLTVLG
- OD490 (Human CXCL10-His [2]): 3.02
- Ratio (Human CXCL10-His [3]): 3.4

B5: anti-CXCL10 antibody 12D (whole IgG) (antibody, V domains shown)
VH: QVQLVQSGGGVVQPGRSLRLSCVASAFTFSRYGMHWVRQAPGKGLEWVALISYDGSSEYYADSVKGRFNISRDNSKNTVYLQMNSLRAEDTAVYYCVKDGLAAKLGHWGQGTLVTVSS
VL: QAPSLSVSPGQTANIICSGDNLRTKYVSWYQQKPGQSPLLVIYQDTRRPSGIPARFSGSNSGNTATLTISGTQTERESTYYCMTWDVDTTSMIFGGGTKLTVLG
notes: Whole-form IgG
- Kd (Human CXCL10-His [1]): 4.7 pM

B6: scFv-phage clone 10D (scFv)
scFv: QVQLVQSGGGVVQPGRSLRLSCAASGFTFSSYGMHWVRQAPGKGLEWVAVISYDGSNKYYADSVKGRFTISRDNSKNTLYLQMNSLRSEDTAVYYCARDKRAAFDIWGQGKMVTVSSGLGGLGGGGSGGGGSGGSSGVGSSYELTQAPSLSVSPGQTANIICSGDNLRTKYVSWYQQKPGQSPLLVIYQDTRRPSGIPARFSGSNSGNTATLTISGTQTERESTYYCMTWDVDTTSMIFGGGTKLTVL
- OD490 (Human CXCL10-His [2]): 2.85
- OD490 [4]: 0.178
- Ratio (Human CXCL10-His [3]): 0.945

B7: scFv-phage clone 10E (scFv)
scFv: QVQLVQSGGGVVQPGRSLRLSCAASGFTFNSYGMHWVRQAPGKGPEWVAVISYDGNSKYYADSVKGRFTISRDNSKTTLYLQMNSLRSEDTAVYYCARDSGSYLDWYFDLWGRGTLVTVSSGLGGLGGGGSGGGGSGGSSGVGSQFVLTQPPSVSGAPGQRVTISCTGSRSNFGAGHDVHWYQQLPGTAPKLLIYGNNNRPSGVPDRFSGSKSGTSASLAITGLQAEDEADYYCQSYDSRLGVVFGGGTKLTVL
notes: also called E10 scFv
- OD490 (Human CXCL10-His [2]): 3.05
- OD490 [5]: 0.307
- OD490 [4]: 0.051
- Ratio (Human CXCL10-His [3]): 9.95
